Test results published in the supplement of paper PMC7877785.
± gives the uncertainty stated by the source.

Test: self-splicing fitness, log relative to wild type (ln ratio); higher = more splicing; Tetrahymena group I intron in knt gene, E. coli kanamycin selection, DiMSum; sequences stand for … in CUCUCU…GGAGGGAAAAGUUAUCAGGCAUGCACCUGGUAGCUAGUCUUUAAACCAAUAGAUUGCAUCGGUUUAAAAGGCAAGACCGUCAAAUUGCGGGAAAGGGGUCAACAGCCGUUCAGUACCAAGUCUCAGGGGAAACUUUGAGAUGGCCUUGCAAAGGGUAUGGUAAUAAGCUGACGGACAUGGUCCUAACCACGCAGCCAAGUCCUAAGUCAACAGAUCUUCUGUUGAUAUGGAUGCAGUUCACAGACUAAAUGUCGGUCGGGGAAGAUGUAUUCUUCUCAUAAGAUAUAGUCGGACCUCUCCUUAAUGGGAGCUAGCGGAUGAAGUGAUGCAACACUGGAGCCGCUGGGAACUAAUUUGUAUGCGAAAGUAUAUUGAUUAGUUUUGGAGUACUCGUGGUCG
Method in brief: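 The eight P1ex-region nucleotides of an intron in the knt kanamycin-resistance gene on pET-22b(+) were all randomised and the library put into E. coli BL21(DE3). Six replicate transformations were grown overnight at 37°C or 30°C on LB agar with or without 25 μg/mL kanamycin, together with 100 μg/mL carbenicillin, 50 μM IPTG and 0.2% rhamnose. Colonies were pooled and amplicon-sequenced on an Illumina HiSeq 2500. Fitness from DiMSum is the error-weighted combination of wild-type-normalised replicate fold changes, kanamycin over none.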

Sequence	self-splicing fitness (ln) (30 °C)	self-splicing fitness (ln) (37 °C)
CCGCAGCAAUAUUACGCGCA	-3.08 ± 0.27	-1.41 ± 0.16
CCGCAGCAAUAUUACGCGUA	-2.58 ± 0.16	-0.978 ± 0.11
CCGCAGCAAUAUUACGCUCU	-4.04 ± 0.42	-2.18 ± 0.2
CCGCAGCAAUAUUACGCUGG	-2.24 ± 0.11	-2.92 ± 0.24
CCGCAGCAAUAUUACGCUGU	-3.3 ± 0.36	-2.85 ± 0.23
CCGCAGCAAUAUUACGCUUU	-3.86 ± 0.18	-2.97 ± 0.18
CCGCAGCAAUAUUACGGAAC	-3.52 ± 0.41	-3.41 ± 0.29
CCGCAGCAAUAUUACGGAGC	-3.52 ± 0.14	-2.48 ± 0.18
CCGCAGCAAUAUUACGGAGU	-4.11 ± 0.21	-3.01 ± 0.23
CCGCAGCAAUAUUACGGCUA	-3.46 ± 0.23	-2.61 ± 0.22
CCGCAGCAAUAUUACGGCUU	-4.44 ± 0.27	-2.45 ± 0.21
CCGCAGCAAUAUUACGGGAC	-4.12 ± 0.46	-2.65 ± 0.29
CCGCAGCAAUAUUACGGGAG	-3.26 ± 0.16	-3.06 ± 0.24
CCGCAGCAAUAUUACGGGCU	-3.56 ± 0.18	-3.05 ± 0.22
CCGCAGCAAUAUUACGGUUC	-3.51 ± 0.28	-3.67 ± 0.37
CCGCAGCAAUAUUACGUGGG	-3.41 ± 0.12	-3.02 ± 0.17
CCGCAGCAAUAUUACGUUAA	-3.03 ± 0.18	-2.1 ± 0.2
CCGCAGCAAUAUUACGUUUG	-1.62 ± 0.065	-1.36 ± 0.096
CCGGAGCAAUAUUACGAAUC	-4.01 ± 0.46	–
CCGGAGCAAUAUUACGACCG	-1.71 ± 0.5	–
CCGGAGCAAUAUUACGCAAU	-2.59 ± 0.36	–
CCGGAGCAAUAUUACGCCAG	-3.49 ± 0.2	-2.31 ± 0.24
CCGGAGCAAUAUUACGCCGA	-3.86 ± 0.41	–
CCGGAGCAAUAUUACGCGCU	-1.24 ± 0.17	–
CCGGAGCAAUAUUACGCGUC	–	-2.18 ± 0.39

Sequence	self-splicing fitness (ln) (30 °C)	self-splicing fitness (ln) (37 °C)
CCGGAGCAAUAUUACGGGGG	-3.5 ± 0.2	-1.83 ± 0.17
CCGGAGCAAUAUUACGGGGU	-3.59 ± 0.2	-2.93 ± 0.26
CCGGAGCAAUAUUACGGUUA	-2.44 ± 0.35	-2.64 ± 0.48
CCGGAGCAAUAUUACGGUUG	-1.16 ± 0.14	-1.25 ± 0.16
CCGGAGCAAUAUUACGUAAA	-3.29 ± 0.25	-2.09 ± 0.47
CCGGAGCAAUAUUACGUAAC	-2.38 ± 0.38	-1.45 ± 0.43
CCGGAGCAAUAUUACGUGAU	-2.17 ± 0.19	-1.54 ± 0.3
CCGGAGCAAUAUUACGUUCA	-1.23 ± 0.17	-1.63 ± 0.29
CCGUAGCAAUAUUACGAACG	-1.07 ± 0.12	-0.439 ± 0.15
CCGUAGCAAUAUUACGAAUU	-3.75 ± 0.25	-2.85 ± 0.34
CCGUAGCAAUAUUACGAGUC	-2.86 ± 0.23	–
CCGUAGCAAUAUUACGAUAC	-3.22 ± 0.24	–
CCGUAGCAAUAUUACGAUCU	–	-2.46 ± 0.45
CCGUAGCAAUAUUACGAUGU	-4.42 ± 0.33	-1.79 ± 0.18
CCGUAGCAAUAUUACGCAGA	-2.96 ± 0.25	-2.74 ± 0.24
CCGUAGCAAUAUUACGCCUU	-3.08 ± 0.44	-2.19 ± 0.31
CCGUAGCAAUAUUACGCGGC	-2.94 ± 0.19	-2.51 ± 0.27
CCGUAGCAAUAUUACGGCGU	-2.57 ± 0.23	-1.86 ± 0.25
CCGUAGCAAUAUUACGGGAG	-3.35 ± 0.19	-2.97 ± 0.18
CCGUAGCAAUAUUACGGUCC	-4.14 ± 0.3	-2.93 ± 0.28
CCGUAGCAAUAUUACGUAGC	-3.91 ± 0.21	-2.63 ± 0.22
CCGUAGCAAUAUUACGUAUC	–	-2.65 ± 0.29
CCGUAGCAAUAUUACGUGGU	-4.27 ± 0.24	-2.12 ± 0.14
CCGUAGCAAUAUUACGUUGC	-3.53 ± 0.28	-2.04 ± 0.43
CCGUAGCAAUAUUACGUUUA	-3.43 ± 0.44	-3.04 ± 0.4

Sequence	self-splicing fitness (ln) (30 °C)	self-splicing fitness (ln) (37 °C)
CCUAAGCAAUAUUACGAAAA	-3.53 ± 0.28	-2.44 ± 0.19
CCUAAGCAAUAUUACGAAAC	-3.48 ± 0.33	–
CCUAAGCAAUAUUACGAAUA	-3.51 ± 0.35	–
CCUAAGCAAUAUUACGAUUU	-3.8 ± 0.25	-0.794 ± 0.23
CCUAAGCAAUAUUACGCAUG	-3.6 ± 0.33	-1.51 ± 0.23
CCUAAGCAAUAUUACGCGCG	-3.42 ± 0.39	-1.9 ± 0.25
CCUAAGCAAUAUUACGCGUG	-3.34 ± 0.13	-2.48 ± 0.13
CCUAAGCAAUAUUACGCUCG	–	-2.15 ± 0.3
CCUAAGCAAUAUUACGGAUA	-4.31 ± 0.26	-4.12 ± 0.31
CCUAAGCAAUAUUACGGGGA	-2.84 ± 0.15	-1.92 ± 0.13
CCUAAGCAAUAUUACGGUCU	-3.89 ± 0.31	-2.94 ± 0.34
CCUAAGCAAUAUUACGGUGG	-2.76 ± 0.11	-2.03 ± 0.14
CCUAAGCAAUAUUACGGUUA	-3.71 ± 0.16	-2.67 ± 0.14
CCUAAGCAAUAUUACGGUUG	-3.92 ± 0.19	-2.07 ± 0.15
CCUAAGCAAUAUUACGUAAC	-2.97 ± 0.17	-1.77 ± 0.29
CCUAAGCAAUAUUACGUCGC	-2.21 ± 0.16	-1.85 ± 0.2
CCUAAGCAAUAUUACGUGAA	–	-1.96 ± 0.26
CCUAAGCAAUAUUACGUGAU	-4.46 ± 0.23	-2.71 ± 0.21
CCUAAGCAAUAUUACGUGCG	-2.59 ± 0.13	-1.03 ± 0.12
CCUAAGCAAUAUUACGUGUU	-3.2 ± 0.14	-3.07 ± 0.19
CCUCAGCAAUAUUACGAGAG	-2.75 ± 0.13	-1.47 ± 0.1
CCUCAGCAAUAUUACGAGCC	-0.962 ± 0.25	-0.207 ± 0.41
CCUCAGCAAUAUUACGAUAA	-2.82 ± 0.16	-3.35 ± 0.32
CCUCAGCAAUAUUACGAUAU	-4.25 ± 0.25	-0.929 ± 0.15
CCUCAGCAAUAUUACGCCUC	-3.76 ± 0.35	-1.75 ± 0.31

Sequence	self-splicing fitness (ln) (30 °C)	self-splicing fitness (ln) (37 °C)
CCUCAGCAAUAUUACGCUCG	-2.8 ± 0.16	-2.96 ± 0.24
CCUCAGCAAUAUUACGGGCG	-1.59 ± 0.069	-0.619 ± 0.074
CCUCAGCAAUAUUACGGUAA	-3.97 ± 0.25	-2.47 ± 0.18
CCUCAGCAAUAUUACGGUCG	-0.693 ± 0.069	-0.505 ± 0.089
CCUCAGCAAUAUUACGGUGA	-3.68 ± 0.28	-2.28 ± 0.2
CCUCAGCAAUAUUACGGUUC	-3.33 ± 0.14	-3.16 ± 0.27
CCUCAGCAAUAUUACGUACU	-3.42 ± 0.22	-1.98 ± 0.22
CCUCAGCAAUAUUACGUAUA	-3.44 ± 0.19	-3.16 ± 0.32
CCUCAGCAAUAUUACGUCAC	-3.97 ± 0.27	-2.36 ± 0.26
CCUCAGCAAUAUUACGUCUA	-3.41 ± 0.26	-2.46 ± 0.28
CCUCAGCAAUAUUACGUGCG	-2.51 ± 0.11	-1.71 ± 0.12
CCUCAGCAAUAUUACGUUCA	-2.61 ± 0.16	-2.68 ± 0.3
CCUCAGCAAUAUUACGUUGA	-3.03 ± 0.14	-2.28 ± 0.14
CCUGAGCAAUAUUACGAAGA	-1.76 ± 0.18	-1.69 ± 0.19
CCUGAGCAAUAUUACGAAGG	-3.87 ± 0.3	-2.36 ± 0.32
CCUGAGCAAUAUUACGACAG	-1.3 ± 0.14	-0.663 ± 0.15
CCUGAGCAAUAUUACGAGAU	-1.86 ± 0.16	-2.09 ± 0.23
CCUGAGCAAUAUUACGAGCA	-3.49 ± 0.27	-3.47 ± 0.3
CCUGAGCAAUAUUACGAGGA	-3.04 ± 0.45	-1.57 ± 0.18
CCUGAGCAAUAUUACGCCAA	-2.85 ± 0.44	–
CCUGAGCAAUAUUACGCCGC	-2.83 ± 0.5	0.153 ± 0.33
CCUGAGCAAUAUUACGCCUU	-2.73 ± 0.28	-2.01 ± 0.2
CCUGAGCAAUAUUACGCUCG	-2.14 ± 0.43	-1.7 ± 0.41
CCUGAGCAAUAUUACGGAAU	-4.68 ± 0.23	-2.85 ± 0.16
CCUGAGCAAUAUUACGGCUA	-1.85 ± 0.33	–
